US20050196753A1, “Human coactivator-associated arginine methyltransferase 1 (hCARM1)” (priority 2002, published 2005)

How the values were obtained:
[1] = system: Histone H3; experiment: Methylation assay: methylating activity of purified hCARM1; format: biochemical; conditions: increasing amounts of purified enzyme, constant recombinant Histone H3 (FIG. 2)
Method: Methylation assay protocol: Reactions were performed in IX methylation buffer containing 20 mM Tris.HCl, pH 8.0, 200 mM NaCl and 0.4 mM EDTA. Reactions were assembled with 2.5 ug of Histone H3 and increasing amounts of hCARM1 (0.25 ug, 0.5 ug, 1.25 ug, 2.5 ug, 3.75 ug, 5 ug, or 7.5 ug). A mock reaction where hCARM1 was omitted was used as the negative control. Reactions were incubated at 30° C. for 1 hr. prior to loading on a 10-20% gradient SDS-PAGE. The gel was fixed, dried and exposed to film.
A methylation reaction was performed in order to evaluate whether the cloned full-length hCARM1 had methylating activity. Mouse CARM1 has been previously shown to specifically methylate Histone H3 in vitro and in vivo.

[2] = system: ER dependent promoter reporter in T47D cells; experiment: ER dependent luciferase reporter assay in transfected T47D cells; format: cell-based, human; conditions: hCARM1 co-transfected with GRIP-1 and ER, compared to GRIP-1 and ER alone
Method: Transfection protocol: Cells were plated in 12 well-dishes and allowed to adhere and grow overnight such that they were 80% confluent at the time of transfection. Tranfections were performed in triplicate using Lipofectamine 2000 (Gibco) and OptiMEM media. Total amount of DNA transfected was held constant within experiments. Six hrs. post transfection the Lipofectamine-DNA mix was removed and replaced with fresh media containing 10% serum. Hormone (dihydrotestosterone or estradiol) was added at this time and reporter activation measured after 24 hr.
Mouse CARM1 has been implicated as a coactivator of the androgen and estrogen receptor mediated signaling pathways along with the well-known steroid coactivator GRIP-1. The contribution, if any, of the human clone to these pathways was investigated. […] Thus, antagonizing endogenous CARM1 is deleterious to hormone dependent activation by endogeous ER.

B1: hCARM1: cloned full-length human CARM1, produced in and purified from baculovirus infected insect cells; transfected as cDNA in cell assays (protein, UniProt Q86X55 1-608, looked up)
chain: MAAAAAAVGPGAGGAGSAVPGGAGPCATVSVFPGARLLTIGDANGEIQRHAEQQALRLEVRAGPDSAGIALYSHEDVCVFKCSVSRETECSRVGKQSFIITLGCNSVLIQFATPNDFCSFYNILKTCRGHTLERSVFSERTEESSAVQYFQFYGYLSQQQNMMQDYVRTGTYQRAILQNHTDFKDKIVLDVGCGSGILSFFAAQAGARKIYAVEASTMAQHAEVLVKSNNLTDRIVVIPGKVEEVSLPEQVDIIISEPMGYMLFNERMLESYLHAKKYLKPSGNMFPTIGDVHLAPFTDEQLYMEQFTKANFWYQPSFHGVDLSALRGAAVDEYFRQPVVDTFDIRILMAKSVKYTVNFLEAKEGDLHRIEIPFKFHMLHSGLVHGLAFWFDVAFIGSIMTVWLSTAPTEPLTHWYQVRCLFQSPLFAKAGDTLSGTCLLIANKRQSYDISIVAQVDQTGSKSSNLLDLKNPFFRYTGTTPSPPPGSHYTSPSENMWNTGSTYNLSSGMAVAGMPTAYDLSSVIASGSSVGHNNLIPLANTGIVNHTHSRMGSIMSTGIVQGSSGAQGSGGGSTSAHYAVNSQFTMGGPAISMASPMSIPTNTMHYGS
modifications: full-length
notes: cloned full-length human CARM1, produced in and purified from baculovirus infected insect cells; transfected as cDNA in cell assays
In the case of B1, the “methylation of Histone H3 by hCARM1” value [1] is reported as “methylates Histone H3 efficiently” and the “estradiol mediated induction of ER dependent luciferase reporter” value [2] is reported as “concentration dependent increase”.
